This is an account of results in US6774106 (Amgen, dated 2004).

Assay [1] addresses T1, mouse BCMA expressed on 293 cells (sense pmBCMA vector) (mouse, UniProt O88472 1-185).
T1 construct: also called exogenous BCMA; BCMA gene
T1 sequence: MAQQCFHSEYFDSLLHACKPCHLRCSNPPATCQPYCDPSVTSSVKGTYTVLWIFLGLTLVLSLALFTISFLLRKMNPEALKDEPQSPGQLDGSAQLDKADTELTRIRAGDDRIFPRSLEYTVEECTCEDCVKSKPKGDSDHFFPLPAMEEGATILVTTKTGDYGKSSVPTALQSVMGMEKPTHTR
In words: FACS on transfected 293 cells, G70/APRIL-Flag then FITC anti-Flag antibody. Here is the method:
(§1) FIGS. 14A, 14B and 14C show soluble mouse G70/APRIL binding to 293 cells expressing the BCMA gene. Human 293 cells transfected with the pmBCMA and pcDNA3 vectors were incubated with G70/APRIL-Flag, followed by FITC-conjugated anti-Flag antibody staining for FACS analysis. A. 293 cells transfected with pcDNA3 vector only. B. 293 cells transfected with antisense pmBCMA vector. C. 293 cells transfected with sense pmBCMA vector.
(§2) Human 293 cells transfected with the phTACI and pcDNA3 vectors were incubated with G70/APRIL-Flag, followed by FITC-conjugated anti-Flag antibody staining for FACS analysis.

Assay [2] has as its target T2, human TACI expressed on 293 cells (phTACI vector) (human, UniProt O14836 1-293).
T2 construct: also called hTACI gene
T2 sequence: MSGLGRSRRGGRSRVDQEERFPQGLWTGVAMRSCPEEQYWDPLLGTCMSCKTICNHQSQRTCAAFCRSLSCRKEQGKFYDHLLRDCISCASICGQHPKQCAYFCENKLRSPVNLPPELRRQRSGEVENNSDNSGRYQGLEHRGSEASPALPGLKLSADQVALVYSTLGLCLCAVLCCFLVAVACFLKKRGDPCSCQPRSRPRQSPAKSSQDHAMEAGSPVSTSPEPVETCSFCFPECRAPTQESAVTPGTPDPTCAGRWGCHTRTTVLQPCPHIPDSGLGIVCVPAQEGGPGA
The description is as above. The procedure: as §1, §2

B1: Soluble murine APRIL-Flag protein (FLAG-tagged soluble mouse APRIL) (ligand)
chain: MDYKDDDDKKHKKKHSVLHLVPVNITSKDSDVTEVMWQPVLRRGRGLEAQGDIVRVWDTGIYLLYSQVLFHDVTFTMGQVVSREGQGRRETLFRCIRSMPSDPDRAYNSCYSAGVFHLHQGDIITVKIPRANAKLSLSPHGTFLGFVKL
notes: also called Flag-APRIL; Flag-mAPRIL
For the molecule B1, the binding result in assay [1] and in assay [2] was “binds” throughout.
